Measurements published in paper PMC8791618.

How the values were obtained:
[1] = biological target: Haliangium ochraceum encapsulated ferritin (Haliangium ochraceum) (UniProt D0LZ73); experiment: LC-MS; purified Loaded-Enc at ~2 uM on a reverse-phase C4 column, water/acetonitrile with 0.1% formic acid; deconvoluted masses
[2] = biological target: Haliangium ochraceum encapsulated ferritin (Haliangium ochraceum) (UniProt D0LZ73); experiment: SDS-PAGE; purified Loaded-Enc on 15% acrylamide SDS-PAGE, Coomassie blue stain
[3] = biological target: Haliangium ochraceum encapsulin (Haliangium ochraceum) (UniProt D0LZ74); experiment: cryo-EM structure; Loaded-Enc; asymmetric (C1) reconstruction without imposed symmetry, 3.7 A; local refinement of a single EncFtn density in CryoSPARC with PDB 5N5F docked; details: scale: EncFtn decamers per encapsulin nanocompartment
[4] = biological target: Haliangium ochraceum encapsulated ferritin (Haliangium ochraceum) (UniProt D0LZ73); experiment: as above
[5] = biological target: Haliangium ochraceum encapsulin (Haliangium ochraceum) (UniProt D0LZ74); experiment: HDX-MS; Empty-Enc against Loaded-Enc nanocompartments; labelling in phosphate buffer in D2O pH 8.0 at 4 C, up to 24 hours; pepsin digestion
[6] = biological target: Haliangium ochraceum encapsulin (Haliangium ochraceum) (UniProt D0LZ74); experiment: cryo-EM structure; Loaded-Enc (3 mg/ml) vitrified; reconstruction with imposed I1 symmetry (2.5 A), then symmetry expansion and masked focused refinement of the fivefold pentamer (closed 2.2 A, open 2.4 A), Relion3.1

Substance	stoichiometry N [1]	stoichiometry N [2]	stoichiometry N [3]	stoichiometry N [4]	reduction in hydrogen/deuterium exchange of encapsulin peptide 21-37, Loaded-Enc against Empty-Enc [5] [%]	stoichiometry N [6]
Haliangium ochraceum encapsulated ferritin (from UniProt D0LZ73 1-131) (enzyme)	2	2	4	10	12	
Haliangium ochraceum encapsulin (from UniProt D0LZ74 1-266) (natural protein)						60
